Reference: patent US20240409634A1 (Janssen / Centocor, published 2024)

Biological target: human CD33 on CD33-expressing THP-1 cells (human, UniProt P20138 18-364)
Assay: cell-based or functional assay

Sequence of human CD33 on CD33-expressing THP-1 cells (P20138 18-364): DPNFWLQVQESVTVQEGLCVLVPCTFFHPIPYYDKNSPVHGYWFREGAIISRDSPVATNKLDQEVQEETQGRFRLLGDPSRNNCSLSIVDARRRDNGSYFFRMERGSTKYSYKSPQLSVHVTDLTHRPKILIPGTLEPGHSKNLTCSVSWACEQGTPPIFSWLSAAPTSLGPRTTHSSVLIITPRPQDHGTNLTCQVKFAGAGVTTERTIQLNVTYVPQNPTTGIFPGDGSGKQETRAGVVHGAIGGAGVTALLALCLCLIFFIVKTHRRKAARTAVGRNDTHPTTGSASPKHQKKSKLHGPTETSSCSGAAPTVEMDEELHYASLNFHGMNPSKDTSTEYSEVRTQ

| Binder | Cytotox EC50 (pM) E:T 1:1 - 22 hrs [pM] | Cytotox EC50 (pM) E:T 1:20 - 94 hrs [pM] |
| --- | --- | --- |
| CD33 antibody JL3 combined with Vdelta2 antibody 5D3 (JL3x5D3), Fab (CD33) x VHH (Vδ2) Fc construct (bispecific antibody, human IgG1, lambda, L234A L235A) heavy: QVQLQESGPGLVKPSETLSLTCSVSGGSIRNYYWSWIRQSAGKELEWFGHIFSTGHINYDSSLKSRVTMSVDTSNNQFSLKLRSVTAADTAVYYCARDNGAALFDFWGQGTLVTVSSASTKGPSVFPLAPSSKSTSGGTAALGCLVKDYFPEPVTVSWNSGALTSGVHTFPAVLQSSGLYSLSSVVTVPSSSLGTQTYICNVNHKPSNTKVDKKVEPKSCDKTHTCPPCPAPEAAGGPSVFLFPPKPKDTLMISRTPEVTCVVVSVSHEDPEVKFNWYVDGVEVHNAKTKPREEQYNSTYRVVSVLTVLHQDWLNGKEYKCKVSNKALPAPIEKTISKAKGQPREPQVYTLPPSREEMTKNQVSLSCAVKGFYPSDIAVEWESNGQPENNYKTTPPVLDSDGSFFLVSKLTVDKSRWQQGNVFSCSVMHEALHNRFTQKSLSLSPGK light: not shown EVQLVESGGGLVQAGGSLRLSCAASGRPFSNYAMGWFRQAPGKEREFVTVISWSGGSTYYADSVKGRFTISRDNAKNTVYLQMNSLKPEDTAVYYCAAQFSGASTVVAGTALDYDYWGQGTRVTVSSEPKSSDKTHTCPPCPAPEAAGGPSVFLFPPKPKDTLMISRTPEVTCVVVSVSHEDPEVKFNWYVDGVEVHNAKTKPREEQYNSTYRVVSVLTVLHQDWLNGKEYKCKVSNKALPAPIEKTISKAKGQPREPQVYTLPPSREEMTKNQVSLWCLVKGFYPSDIAVEWESNGQPENNYKTTPPVLDSDGSFFLYSKLTVDKSRWQQGNVFSCSVMHEALHNHYTQKSLSLSPGK | 15 | 77 |
| CD33 antibody JL5 combined with Vdelta2 antibody 5D3 (JL5x5D3), Fab (CD33) x VHH (Vδ2) Fc construct (bispecific antibody, human IgG1, lambda, L234A L235A) heavy: QVQLQESGPGLVKPSETLSLTCSVSGASIRNYYWSWIRQTAGKGLEWLGHIYSTGNIHYNPSLKSRVTMSVDTSNNQFSLKLRSVTAADTAVYYCARDNGAALFDYWGQGTLVTVSSASTKGPSVFPLAPSSKSTSGGTAALGCLVKDYFPEPVTVSWNSGALTSGVHTFPAVLQSSGLYSLSSVVTVPSSSLGTQTYICNVNHKPSNTKVDKKVEPKSCDKTHTCPPCPAPEAAGGPSVFLFPPKPKDTLYITREPEVTCVVVSVSHEDPEVKFNWYVDGVEVHNAKTKPREEQYNSTYRVVSVLTVLHQDWLNGKEYKCKVSNKALPAPIEKTISKAKGQPREPQVYTLPPSREEMTKNQVSLSCAVKGFYPSDIAVEWESNGQPENNYKTTPPVLDSDGSFFLVSKLTVDKSRWQQGNVFSCSVMHEALHNRFTQKSLSLSPGK light: not shown EVQLVESGGGLVQAGGSLRLSCAASGRPFSNYAMGWFRQAPGKEREFVTVISWSGGSTYYADSVKGRFTISRDNAKNTVYLQMNSLKPEDTAVYYCAAQFSGASTVVAGTALDYDYWGQGTRVTVSSEPKSSDKTHTCPPCPAPEAAGGPSVFLFPPKPKDTLYITREPEVTCVVVSVSHEDPEVKFNWYVDGVEVHNAKTKPREEQYNSTYRVVSVLTVLHQDWLNGKEYKCKVSNKALPAPIEKTISKAKGQPREPQVYTLPPSREEMTKNQVSLWCLVKGFYPSDIAVEWESNGQPENNYKTTPPVLDSDGSFFLYSKLTVDKSRWQQGNVFSCSVMHEALHNHYTQKSLSLSPGK | 12 | 45 |
| CD33 antibody JL6 combined with Vdelta2 antibody 5D3 (JL6x5D3), Fab (CD33) x VHH (Vδ2) Fc construct (bispecific antibody, human IgG1, lambda, L234A L235A) heavy: QVQLQESGPGLVKPSETLSLTCTVSGGSISSYYWGWIRQPPGKGLEWIGYIYYSGSTNYNPSLKSRVTISVDTSKNQFSLKLSSVTAADTAVYYCARMWEILGFDPWGQGTLVTVSSASTKGPSVFPLAPSSKSTSGGTAALGCLVKDYFPEPVTVSWNSGALTSGVHTFPAVLQSSGLYSLSSVVTVPSSSLGTQTYICNVNHKPSNTKVDKKVEPKSCDKTHTCPPCPAPEAAGGPSVFLFPPKPKDTLMISRTPEVTCVVVSVSHEDPEVKFNWYVDGVEVHNAKTKPREEQYNSTYRVVSVLTVLHQDWLNGKEYKCKVSNKALPAPIEKTISKAKGQPREPQVYTLPPSREEMTKNQVSLSCAVKGFYPSDIAVEWESNGQPENNYKTTPPVLDSDGSFFLVSKLTVDKSRWQQGNVFSCSVMHEALHNRFTQKSLSLSPGK light: not shown EVQLVESGGGLVQAGGSLRLSCAASGRPFSNYAMGWFRQAPGKEREFVTVISWSGGSTYYADSVKGRFTISRDNAKNTVYLQMNSLKPEDTAVYYCAAQFSGASTVVAGTALDYDYWGQGTRVTVSSEPKSSDKTHTCPPCPAPEAAGGPSVFLFPPKPKDTLMISRTPEVTCVVVSVSHEDPEVKFNWYVDGVEVHNAKTKPREEQYNSTYRVVSVLTVLHQDWLNGKEYKCKVSNKALPAPIEKTISKAKGQPREPQVYTLPPSREEMTKNQVSLWCLVKGFYPSDIAVEWESNGQPENNYKTTPPVLDSDGSFFLYSKLTVDKSRWQQGNVFSCSVMHEALHNHYTQKSLSLSPGK | 63 | ~560 |
| CD33 antibody JL2 combined with Vdelta2 antibody 6H4 (JL2x6H4), Fab (CD33) x VHH (Vδ2) Fc construct (bispecific antibody, human IgG1, kappa, L234A L235A) heavy: EVQLVESGGGLVQPGGSLRLSCVVSGFTFSSYWMTWVRQAPGKGLEWVANIKQDGSERYYVDSVKGRFTISRDSAKNSLYLQMNSLRAEDTAVYYCAREVGYNWNQGGYFDYWGQGTLVTVSSASTKGPSVFPLAPSSKSTSGGTAALGCLVKDYFPEPVTVSWNSGALTSGVHTFPAVLQSSGLYSLSSVVTVPSSSLGTQTYICNVNHKPSNTKVDKKVEPKSCDKTHTCPPCPAPEAAGGPSVFLFPPKPKDTLMISRTPEVTCVVVSVSHEDPEVKFNWYVDGVEVHNAKTKPREEQYNSTYRVVSVLTVLHQDWLNGKEYKCKVSNKALPAPIEKTISKAKGQPREPQVYTLPPSREEMTKNQVSLSCAVKGFYPSDIAVEWESNGQPENNYKTTPPVLDSDGSFFLVSKLTVDKSRWQQGNVFSCSVMHEALHNRFTQKSLSLSPGK light: DIVMTQSPLSLPVTPGEPASISCRSSQSLLHSDGYNYLDWYLQKSGQSPQLLIYLGSYRASGVPDRFSGSGSGTDFTLKISRVEAEDVGIYYCMQVLQTPWTFGQGTKVEIKRTVAAPSVFIFPPSDEQLKSGTASVVCLLNNFYPREAKVQWKVDNALQSGNSQESVTEQDSKDSTYSLSSTLTLSKADYEKHKVYACEVTHQGLSSPVTKSFNRGEC EVQLVESGGGLVQAGGSLRLSCAASGRPFSNYGMGWFRQAPGKKREFVAGISWSGGSTDYADSVKGRFTISRDNAKNTVYLQMNSLKPEDTAVYYCAAVFSGAETAYYPSDDYDYWGQGTQVTVSSEPKSSDKTHTCPPCPAPEAAGGPSVFLFPPKPKDTLMISRTPEVTCVVVSVSHEDPEVKFNWYVDGVEVHNAKTKPREEQYNSTYRVVSVLTVLHQDWLNGKEYKCKVSNKALPAPIEKTISKAKGQPREPQVYTLPPSREEMTKNQVSLWCLVKGFYPSDIAVEWESNGQPENNYKTTPPVLDSDGSFFLYSKLTVDKSRWQQGNVFSCSVMHEALHNHYTQKSLSLSPGK | 4 | 20 |
| CD33 antibody JL2 combined with Vdelta2 antibody 5D3 (JL2x5D3), Fab (CD33) x VHH (Vδ2) Fc construct (bispecific antibody, human IgG1, kappa, L234A L235A) heavy: EVQLVESGGGLVQPGGSLRLSCVVSGFTFSSYWMTWVRQAPGKGLEWVANIKQDGSERYYVDSVKGRFTISRDSAKNSLYLQMNSLRAEDTAVYYCAREVGYNWNQGGYFDYWGQGTLVTVSSASTKGPSVFPLAPSSKSTSGGTAALGCLVKDYFPEPVTVSWNSGALTSGVHTFPAVLQSSGLYSLSSVVTVPSSSLGTQTYICNVNHKPSNTKVDKKVEPKSCDKTHTCPPCPAPEAAGGPSVFLFPPKPKDTLMISRTPEVTCVVVSVSHEDPEVKFNWYVDGVEVHNAKTKPREEQYNSTYRVVSVLTVLHQDWLNGKEYKCKVSNKALPAPIEKTISKAKGQPREPQVYTLPPSREEMTKNQVSLSCAVKGFYPSDIAVEWESNGQPENNYKTTPPVLDSDGSFFLVSKLTVDKSRWQQGNVFSCSVMHEALHNRFTQKSLSLSPGK light: DIVMTQSPLSLPVTPGEPASISCRSSQSLLHSDGYNYLDWYLQKSGQSPQLLIYLGSYRASGVPDRFSGSGSGTDFTLKISRVEAEDVGIYYCMQVLQTPWTFGQGTKVEIKRTVAAPSVFIFPPSDEQLKSGTASVVCLLNNFYPREAKVQWKVDNALQSGNSQESVTEQDSKDSTYSLSSTLTLSKADYEKHKVYACEVTHQGLSSPVTKSFNRGEC EVQLVESGGGLVQAGGSLRLSCAASGRPFSNYAMGWFRQAPGKEREFVTVISWSGGSTYYADSVKGRFTISRDNAKNTVYLQMNSLKPEDTAVYYCAAQFSGASTVVAGTALDYDYWGQGTRVTVSSEPKSSDKTHTCPPCPAPEAAGGPSVFLFPPKPKDTLMISRTPEVTCVVVSVSHEDPEVKFNWYVDGVEVHNAKTKPREEQYNSTYRVVSVLTVLHQDWLNGKEYKCKVSNKALPAPIEKTISKAKGQPREPQVYTLPPSREEMTKNQVSLWCLVKGFYPSDIAVEWESNGQPENNYKTTPPVLDSDGSFFLYSKLTVDKSRWQQGNVFSCSVMHEALHNHYTQKSLSLSPGK | 28 | ~380 |
| CD33 antibody JL3 combined with Vdelta2 antibody 6H4 (JL3x6H4), Fab (CD33) x VHH (Vδ2) Fc construct (bispecific antibody, human IgG1, lambda, L234A L235A) heavy: QVQLQESGPGLVKPSETLSLTCSVSGGSIRNYYWSWIRQSAGKELEWFGHIFSTGHINYDSSLKSRVTMSVDTSNNQFSLKLRSVTAADTAVYYCARDNGAALFDFWGQGTLVTVSSASTKGPSVFPLAPSSKSTSGGTAALGCLVKDYFPEPVTVSWNSGALTSGVHTFPAVLQSSGLYSLSSVVTVPSSSLGTQTYICNVNHKPSNTKVDKKVEPKSCDKTHTCPPCPAPEAAGGPSVFLFPPKPKDTLMISRTPEVTCVVVSVSHEDPEVKFNWYVDGVEVHNAKTKPREEQYNSTYRVVSVLTVLHQDWLNGKEYKCKVSNKALPAPIEKTISKAKGQPREPQVYTLPPSREEMTKNQVSLSCAVKGFYPSDIAVEWESNGQPENNYKTTPPVLDSDGSFFLVSKLTVDKSRWQQGNVFSCSVMHEALHNRFTQKSLSLSPGK light: not shown EVQLVESGGGLVQAGGSLRLSCAASGRPFSNYGMGWFRQAPGKKREFVAGISWSGGSTDYADSVKGRFTISRDNAKNTVYLQMNSLKPEDTAVYYCAAVFSGAETAYYPSDDYDYWGQGTQVTVSSEPKSSDKTHTCPPCPAPEAAGGPSVFLFPPKPKDTLMISRTPEVTCVVVSVSHEDPEVKFNWYVDGVEVHNAKTKPREEQYNSTYRVVSVLTVLHQDWLNGKEYKCKVSNKALPAPIEKTISKAKGQPREPQVYTLPPSREEMTKNQVSLWCLVKGFYPSDIAVEWESNGQPENNYKTTPPVLDSDGSFFLYSKLTVDKSRWQQGNVFSCSVMHEALHNHYTQKSLSLSPGK | 2.5 | 12 |
